Measured values as given in publication PMC3462190, “A Peptidic Unconjugated GRP78/BiP Ligand Modulates the Unfolded Protein Response and Induces Prostate Cancer Cell Death” (PLoS ONE, 2012).

Legend:
[1] = test system: ATPase domain of GRP78/BiP; assay: GST pull-down with ATPase domain of GRP78/BiP; assay type: binding; conditions: 10 µg GST-fused ATPase domain, lysate of HEK-293 cells; for the 68 amino acid peptide results not shown
GRP78/BiP = assay: Co-immunoprecipitation with endogenous GRP78/BiP; assay type: binding
Method: 22Rv.1 cells were used for interaction studies of endogenous Bag-1 and GRP78/BiP, while for the in vivo interaction of the Bag-1 peptide and GRP78/BiP, HEK-293 cells were transfected with a plasmid encoding HA-tagged Bag-1 peptide. Twenty-four hours prior to the experiment, the cells in both cases were washed with phosphate buffered saline (PBS) and treated with 20 mM Dithiobis(succinimidyl propionate) (DSP) in PBS for 30 min at room temperature. The reaction was stopped with 20 mM Tris and the cells were lysed in 50 mM Tris-HCl pH 7.4, 120 mM NaCl, 1 mM EDTA, 0.4% NP40 and 1% protease inhibitor cocktail. Immunoprecipitation of GRP78/BiP was carried out overnight at 4°C with anti-GRP78 antibody coupled to sepharose A beads (Abcam, ab21685). Binding of endogenous Bag-1 or of HA-peptide was determined by Western blotting using a Bag-1 or an HA specific antibody.
Figure 1 Bag-1 proteins interact with the molecular chaperone GRP78/BiP. A. The Bag-1 family of proteins binds GRP78/BiP. GST pull-down assay was performed incubating 5 µg each of GST-fused Bag-1 proteins with 400 µg of 22Rv.1 cell lysate. […]
Figure 2 Identification of Bag-1 peptide interfering with the action of GRP78/BiP. […] Western blot analysis with an HA antibody to detected the Bag-1 mutants is shown. […] Thereafter luciferase activity was measured. […]

LNCaP xenograft tumor = assay: LNCaP tumor xenograft study; assay type: in vivo, athymic nude mice; conditions: mean and SD of 4–10 tumors
Method: All animal experiments were performed according to European and German statutory regulations. For generation of xenograft models 5×10^6 LNCaP cells were resuspended in a solution of 50% Matrigel® (BD Bioscience, Heidelberg, Germany) in PBS or 5×10^6 22Rv.1 cells in 100 µl of PBS were subcutaneously injected into both flanks of 6–8 week-old athymic nude mice. Tumor size was measured with a caliper every week. Tumors derived from the […], […] Tumor size was assessed measuring three perpendicular diameters according to the formula: V = (1/6) [π] (d1d2d3), where π is a mathematic constant and d1, d2 and d3 represent the three spatial dimensions (width, depth and height). Mice were euthanized by cervical dislocation and the tumors removed for further analysis.

B1: Bag-1: cochaperone Bag-1, HA-tagged (pcDNA3.1-HA-Bag-1), or endogenous (protein)
chain: TPLSALGIQDGCRVMLIGKKNSPQEEVELKKLKHLEKSVEKIADQLEELNKELTGIQQGFLPKDLQAE
modifications: left off: HA, end not stated, kept
notes: cochaperone Bag-1, HA-tagged (pcDNA3.1-HA-Bag-1), or endogenous
- interaction with ATPase domain of GRP78/BiP [1]: interacted not only with the full length GRP78/BiP but also with its ATPase and SBD
- in vivo interaction with GRP78/BiP (GRP78/BiP; 22Rv.1 cells, endogenous Bag-1): bind to GRP78/BiP in 22Rv.1 cells

B2: Bag-1 peptide: internal sequence of 68 amino acids of Bag-1 (Bag1-L 202–269), HA-tagged, expressed from pcDNA3 (peptide)
chain: TPLSALGIQDGCRVMLIGKKNSPQEEVELKKLKHLEKSVEKIADQLEELNKELTGIQQGFLPKDLQAE
modifications: also: HA tag, end not given here
- interaction with ATPase domain of GRP78/BiP [1]: interacted with both the SBD and ATPase binding domains of GRP78
- in vivo interaction with endogenous GRP78/BiP (GRP78/BiP; HEK-293 cells expressing HA-tagged Bag-1 peptide, DSP cross-linked): interacted with endogenous GRP78/BiP protein
- Tumor weight, clone P12 (LNCaP xenograft tumor; LNCaP clone P12, termination 8 weeks, vector V82 0.65±0.29 g (8 weeks)): 0.04 ± 0.03 g
- Tumor weight, clone P35 (LNCaP xenograft tumor; LNCaP clone P35, termination 6 weeks, vector V69 0.22±0.03 g (6 weeks)): 0.05 ± 0.01 g
